Laboratory results published in PMC8904820.

Molecular target: HRT1-REF bridging protein (HRBP) (Hevea brasiliensis)

“Hevea rubber transferase 1 (HRT1) (enzyme)” gave a prenyltransferase activity of HRT1/HRBP-nanodisc complexes, raw [14C]IPP incorporation (12.5 nCi [14C]IPP in the reaction) of 12200 dpm.
